Data as given in paper PMC2651826 (Biochemistry, 2008).
Values belong to the molecule of their own block, whether it stands above or below them.

Assays:
[1] = molecular target: RS1 from retinal membrane extracts (bovine (endogenous in retinal membranes)); experiment: non-reducing SDS gel electrophoresis with western blot
[2] = molecular target: T1, wild-type RS1 (retinoschisin), secreted from HEK 293 cells (human), O15537; experiment: as above; conditions: remark: other sources report otherwise
T1 chain: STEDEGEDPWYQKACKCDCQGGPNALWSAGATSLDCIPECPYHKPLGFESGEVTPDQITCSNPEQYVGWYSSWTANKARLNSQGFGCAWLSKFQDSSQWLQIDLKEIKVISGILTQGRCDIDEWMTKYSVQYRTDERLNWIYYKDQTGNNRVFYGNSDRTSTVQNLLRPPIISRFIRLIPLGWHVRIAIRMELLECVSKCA

[3] = molecular target: T2, recombinant RS1 secreted from stably transformed Sf21 insect cells (human), O15537; experiment: non-reducing SDS gel electrophoresis with Coomassie Blue staining; conditions: remark: other sources report otherwise
T2 chain: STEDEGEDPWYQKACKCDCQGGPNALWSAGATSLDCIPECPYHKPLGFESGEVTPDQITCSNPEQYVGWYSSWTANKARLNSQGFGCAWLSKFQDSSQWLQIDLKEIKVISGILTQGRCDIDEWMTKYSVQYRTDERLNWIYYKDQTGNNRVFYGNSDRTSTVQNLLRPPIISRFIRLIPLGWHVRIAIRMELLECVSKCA

[4] = molecular target: T2, recombinant RS1 secreted from stably …; experiment: non-reducing SDS gel electrophoresis with western blot; conditions: remark: other sources report otherwise
[5] = molecular target: the molecule itself; experiment: as above
[6] = molecular target: T3, RS1 secreted from Weri-retinoblastoma cells (human (endogenous in Weri-Rb1)), O15537; experiment: as above; conditions: remark: other sources report otherwise
T3 chain: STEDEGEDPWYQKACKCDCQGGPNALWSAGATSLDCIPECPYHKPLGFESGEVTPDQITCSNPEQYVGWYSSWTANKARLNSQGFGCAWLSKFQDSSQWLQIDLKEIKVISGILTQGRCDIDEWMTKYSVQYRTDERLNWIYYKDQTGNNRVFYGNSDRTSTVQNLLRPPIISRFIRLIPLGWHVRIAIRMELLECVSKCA

Molecule: RS1 from retinal membrane extracts (natural protein)
stoichiometry N [1]: 8

B3: RS1 C59S/C223S double cysteine mutant (natural protein, human, UniProt O15537 24-224, looked up)
chain: STEDEGEDPWYQKACKCDCQGGPNALWSAGATSLDSIPECPYHKPLGFESGEVTPDQITCSNPEQYVGWYSSWTANKARLNSQGFGCAWLSKFQDSSQWLQIDLKEIKVISGILTQGRCDIDEWMTKYSVQYRTDERLNWIYYKDQTGNNRVFYGNSDRTSTVQNLLRPPIISRFIRLIPLGWHVRIAIRMELLECVSKSA
stoichiometry N [5]: 2

B4: RS1 secreted from Weri-retinoblastoma cells, O15537 24-224 (natural protein)
chain: STEDEGEDPWYQKACKCDCQGGPNALWSAGATSLDCIPECPYHKPLGFESGEVTPDQITCSNPEQYVGWYSSWTANKARLNSQGFGCAWLSKFQDSSQWLQIDLKEIKVISGILTQGRCDIDEWMTKYSVQYRTDERLNWIYYKDQTGNNRVFYGNSDRTSTVQNLLRPPIISRFIRLIPLGWHVRIAIRMELLECVSKCA
stoichiometry N [6]: 8

Further lines, results first:

stoichiometry N [2]: 8
B1: wild-type RS1 (retinoschisin), secreted from HEK 293 cells, O15537 24-224 (natural protein)
chain: STEDEGEDPWYQKACKCDCQGGPNALWSAGATSLDCIPECPYHKPLGFESGEVTPDQITCSNPEQYVGWYSSWTANKARLNSQGFGCAWLSKFQDSSQWLQIDLKEIKVISGILTQGRCDIDEWMTKYSVQYRTDERLNWIYYKDQTGNNRVFYGNSDRTSTVQNLLRPPIISRFIRLIPLGWHVRIAIRMELLECVSKCA

stoichiometry N [3]: 8 | stoichiometry N [4]: 8
B2: recombinant RS1 secreted from stably transformed Sf21 insect cells, O15537 24-224 (natural protein)
chain: STEDEGEDPWYQKACKCDCQGGPNALWSAGATSLDCIPECPYHKPLGFESGEVTPDQITCSNPEQYVGWYSSWTANKARLNSQGFGCAWLSKFQDSSQWLQIDLKEIKVISGILTQGRCDIDEWMTKYSVQYRTDERLNWIYYKDQTGNNRVFYGNSDRTSTVQNLLRPPIISRFIRLIPLGWHVRIAIRMELLECVSKCA
